# Test results from the supplement of paper PMC12042874.
# ± gives the uncertainty stated by the source.
# Assay: amyloid nucleation score (Sup35N fusion, yeast selection) (log enrichment); library NNK1; higher = more nucleation; inactive = no reads after selection
# Summary of the method: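 The nucleation score is a DiMSum log enrichment of output over input reads, centred on the mode score of non-aggregating sequences. Sequences under 100 input reads were excluded, and reads came from Illumina sequencing of plasmid inserts. Psi-negative yeast expressing Sup35N fused to peptides of 20 random codons were induced with 100 μM copper sulfate for 24 hours and grown 7 days at 30°C on medium lacking adenine and uracil. Random libraries had three technical output replicates.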
row,Substance,amyloid nucleation score
1,RVDTLYKVHLSKIRPSGGST,-0.096 ± 0.75
2,RHALGLFRSGLGMDMDDNGS,inactive
3,ECCQDVIFFVAQINTCIEVT,0.221 ± 0.37
4,SGSMVRDRW,1.83 ± 0.27
5,NGRCKYLRQNIFSVLLIMRR,0.324 ± 1
6,FDVMKFYIYLGYSVVPVM,-1.09 ± 0.43
7,GGLKMTP,0.393 ± 0.25
8,SPEGSPNEHDYTIPAVRGGP,0.775 ± 0.38
9,FMYSKPVI,-0.314 ± 0.78
10,FIFSAVGRNN,-0.411 ± 0.57
11,QCVFYMWVSFEELK,0.418 ± 0.97
12,LCIMF,-0.446 ± 0.69
13,VSKDSSIQRGSRQFCYLAYS,1.08 ± 0.61
14,NNGGASVGFWRMPCHWTRMH,-0.371 ± 0.59
15,WCNNYLSRLCRRVINLEAGL,-1.13 ± 1.9
16,VSGESDSYRVGFSEACLRKL,-0.849 ± 0.65
17,SSILISFI,-0.471 ± 0.94
18,TYSWEDCTYGITPSGTYRSN,1.33 ± 0.38
19,HICTTFCTSMFSRTSQWSGG,0.673 ± 0.3
20,RLNVQLAGSVGVVWFICNWA,5.98 ± 0.056
21,YKANCVETLSWSFGHNFFLR,-0.481 ± 0.49
22,FDIDDIICIM,-1.89 ± 1.4

row,Substance,amyloid nucleation score
1,DASGNYWGWKLWGDQGERGY,inactive
2,SMLMFIQIV,1.96 ± 0.1
3,MLTWCPTSEKVVLLFRSQRG,-0.383 ± 1.7
4,RYRWTSLVFLGMTQH,0.75 ± 0.38
5,GIYTFFVGTKFC,0.65 ± 0.5
6,ICTFVMKLTAFVIIVLVFFH,-0.125 ± 0.26
7,LWATNFCNTGFVYSLCIFSR,3.89 ± 0.12
8,GFSSMGCSVRNSHTAHGGCG,1.73 ± 0.17
9,IILLNNYTDMHIPEGIGVTM,0.466 ± 1.4
10,VLILVDGSKMAPTALSCYSH,1.34 ± 0.49
11,HSGSDSAITVVSLGIRE,-0.19 ± 0.91
12,DYRGTPNSWMIFMTPRGSLI,-0.004 ± 1.1
13,FLLDMV,-0.175 ± 0.45
14,LAIDNDSWFVETNYNFKFDV,-0.438 ± 0.57
15,NKYNSYKKNYPKRIDWSGLN,-0.983 ± 1.4
16,AYSDVYQLFYLKYMFCNWLL,2.89 ± 0.26
17,GYYIEMLYFMEALDIS,inactive
18,LRIRYT,2.42 ± 0.17
19,FGLQWSSKAACVLTCKQSLR,inactive
20,SVENQNIKRYT,1.28 ± 0.33
21,AASRLVRDDWTLISGHPSKA,0.844 ± 0.73
22,VYRNASLCVSEVL,0.211 ± 0.97

row,Substance,amyloid nucleation score
1,VMVQANYMSSSSRSAYLSNM,inactive
2,WFSVDFNNHLWFQNSYSMWG,0.156 ± 0.43
3,KHSNLYIFPGVYFFQITSLY,3.96 ± 0.088
4,LFGKRCGHGQCQDHWKAVCV,-0.008 ± 0.61
5,YDHCEGCWMSNRMWELGWKG,0.048 ± 0.33
6,ISECDICERR,-0.236 ± 0.68
7,CMRHHMSQHCIPGGPRCRGA,-0.912 ± 0.65
8,FMDWIVSCGKCKIGSYYLCI,-0.388 ± 0.29
9,KITWDLF,0.759 ± 0.52
10,RLVSFKCFCFLFLIDFMQGV,0.495 ± 0.45
11,LTHVIGIPRQPCEPLVHLYG,-0.745 ± 2.4
12,CMRFAPMMHANCHVKARWHR,0.696 ± 0.6
13,VWFCLCLYM,1.95 ± 0.091
14,VRFGWVSSTPVVGVSQLCAH,-0.305 ± 1.1
15,LQWNRERGLTLLSWLRYKSI,-0.505 ± 1.5
16,SESSYGSSSRTTESSVCVSG,-0.008 ± 0.52
17,EMIMVGSMYSRGNSTCFPRA,0.777 ± 0.17
18,RFHCYWTPRTLSMASSTPWM,0.47 ± 0.45
19,VPNYHAISYIVDLTMCSLFQ,8.383 ± 0.057
20,NYFNL,0.21 ± 0.46
21,LKDCSCVERQD,-0.072 ± 0.38
22,RINVSGWQLQATLSFLLAFS,0.289 ± 0.5

row,Substance,amyloid nucleation score
1,FEYNRYRLLYTTYLGPVGGI,-1.56 ± 0.64
2,VGLSVRACNFTRVGLMSFRD,0.388 ± 0.37
3,AAMAYFWADRLKHGFYTW,4.74 ± 0.092
4,SSGFVYIYSSKSLGANSKNL,-0.176 ± 1
5,CQSLPKFLHANVKYNSVSGA,-0.16 ± 0.24
6,CSRANRKGECG,-0.62 ± 1.3
7,HEFYSVLMGHFVWLQPWETR,0.839 ± 1.1
8,VLYLDLFWRPPSLKGLL,-0.17 ± 0.32
9,ASNAWCMYYMLATGAMEISL,-0.617 ± 0.86
10,RDWTRGHACRYCSWQWVARG,0.529 ± 0.88
11,GPRYRLLLWECCRHDLSLSC,0.72 ± 0.43
12,TIQMFAVSTCCFFRFTLHWN,-0.598 ± 0.56
13,ARRGVVNPYLSVEFFFRRGL,0.493 ± 0.68
14,KMATRINGWCDGASATTV,-0.154 ± 0.74
15,SDRDVVRVIYNSVGGTVWFG,1.07 ± 0.19
16,ADVATMSRGEKGASGGLK,0.508 ± 0.54
17,AYCVH,0.202 ± 0.59
18,KVPKRKITNFRGMSGFSRYR,0.985 ± 0.98
19,RICGGTSFDSRNGLKLGRKG,0.034 ± 0.64
20,SLRSHML,0.938 ± 0.98
